Results reported in patent US20220372463A1.

Molecular target: Streptococcus pyogenes Cas9 endonuclease (Streptococcus pyogenes) (UniProt Q99ZW2)
Experiment: cell-based or functional assay

Substance: AcrIIA4 N39A as the auto-inhibitory domain of CascAID N39A
- fold decrease of the transition rate to the inhibited state relative to CascAID with wild-type AcrIIA4: 16 fold
- kact (constant activation parameter for all CascAID variants; best fit of the ODE model to editing data): 1.13 h⁻¹
- γ3 (inhibitor strength: fold-change relative to the inhibition rate of CascAID wt; best fit of the ODE model): 0.0609 unitless

Substance: AcrIIA4 D14A/G38A as the auto-inhibitory domain of CascAID D14A/G38A
- fold decrease of the transition rate to the inhibited state relative to CascAID with wild-type AcrIIA4: 19 fold
- kact (constant activation parameter for all CascAID variants; best fit of the ODE model to editing data): 1.13 h⁻¹
- γ4 (inhibitor strength: fold-change relative to the inhibition rate of CascAID wt; best fit of the ODE model): 0.0519 unitless

Substance: wild-type AcrIIA4 as the auto-inhibitory domain of CascAID wt (Cas9 fused to wild-type AcrIIA4)
- kact (constant activation parameter for all CascAID variants; best fit of the ODE model to editing data): 1.13 h⁻¹
- kinh, CascAID (inhibition parameter for CascAID wt; best fit of the ODE model to editing data; marked not identifiable): 618 h⁻¹
